In paper PMC5677370, “Structure-based nuclear import mechanism of histones H3 and H4 mediated by Kap123” (eLife, 2017):

How the values were obtained:
MBP-tagged Kap123 = experiment: amylose affinity pull-down competition assay; conditions: pre-assembled MBP-Kap123 and H3 1-59-Sumo, value at 0X set to 1.0, read off a plot
[1] = molecular target: full-length Kluyveromyces lactis (Kl) Kap123, wild type (Kluyveromyces lactis); experiment: SPR; wild-type Kl Kap123 immobilised on a CM5 chip (10 mM acetate pH 4.0); wild-type or mutant H3 or H4 peptides injected at 30 μl/min in binding buffer (10 mM HEPES, 150 mM NaCl); 7°C

MBP-tagged Kap123, sequence (chain, as listed by the source): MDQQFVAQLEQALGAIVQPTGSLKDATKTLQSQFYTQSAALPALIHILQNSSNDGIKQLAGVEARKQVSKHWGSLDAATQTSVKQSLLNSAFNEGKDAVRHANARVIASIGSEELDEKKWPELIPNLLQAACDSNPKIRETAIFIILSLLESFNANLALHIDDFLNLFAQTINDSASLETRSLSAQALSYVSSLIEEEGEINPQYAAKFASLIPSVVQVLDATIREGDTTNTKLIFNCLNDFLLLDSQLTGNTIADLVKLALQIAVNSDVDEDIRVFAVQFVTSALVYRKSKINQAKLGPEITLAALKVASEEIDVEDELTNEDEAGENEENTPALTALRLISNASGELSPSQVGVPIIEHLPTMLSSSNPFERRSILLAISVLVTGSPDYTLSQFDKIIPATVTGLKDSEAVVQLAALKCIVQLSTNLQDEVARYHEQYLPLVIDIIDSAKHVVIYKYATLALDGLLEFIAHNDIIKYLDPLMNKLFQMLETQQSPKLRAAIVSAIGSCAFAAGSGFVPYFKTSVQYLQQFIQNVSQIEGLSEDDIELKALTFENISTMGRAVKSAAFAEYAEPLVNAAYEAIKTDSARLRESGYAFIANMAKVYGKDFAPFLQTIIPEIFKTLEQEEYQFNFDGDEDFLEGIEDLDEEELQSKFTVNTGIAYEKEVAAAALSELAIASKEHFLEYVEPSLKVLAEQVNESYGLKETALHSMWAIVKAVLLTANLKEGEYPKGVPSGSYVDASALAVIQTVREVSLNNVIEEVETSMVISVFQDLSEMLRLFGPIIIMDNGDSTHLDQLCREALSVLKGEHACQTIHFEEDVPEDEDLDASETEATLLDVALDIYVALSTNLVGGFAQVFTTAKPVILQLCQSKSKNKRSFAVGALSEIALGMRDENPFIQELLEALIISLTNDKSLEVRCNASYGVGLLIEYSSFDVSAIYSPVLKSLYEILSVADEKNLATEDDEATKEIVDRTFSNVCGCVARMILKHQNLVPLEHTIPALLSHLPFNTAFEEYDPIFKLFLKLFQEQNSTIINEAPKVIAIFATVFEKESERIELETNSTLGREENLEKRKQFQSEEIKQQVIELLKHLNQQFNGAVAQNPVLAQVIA

other: relative intensity of H3 1-59-Sumo remaining bound to Kap123 after competition (MBP-tagged Kap123; competitor at 1X, parent: est. 0.88)	other: relative intensity of H3 1-59-Sumo remaining bound to Kap123 after competition (MBP-tagged Kap123; competitor at 2X, parent: est. 0.67)	other: relative intensity of H3 1-59-Sumo remaining bound to Kap123 after competition (MBP-tagged Kap123; competitor at 5X, parent: est. 0.32)	other: relative intensity of H3 1-59-Sumo remaining bound to Kap123 after competition (MBP-tagged Kap123; competitor at 10X, parent: est. 0.13)	fold affinity relative to H4-NLS [1]	Substance
0.99	0.99	0.94	0.96	–	C-terminal Sumo-tagged histone H4_(1–48), P02309 K5Q; K8Q; K12Q
–	–	–	–	5 fold	wild-type H3_(1–35)-NLS peptide (injected as analyte) (from UniProt P61830 2-36)
